{"source": "patent US20230052646A1", "about": "(JJP BIOLOGICS SP Z O O, published 2023)", "binders": {"B1": {"name": "mouse anti-human HVEM antibody no. 36H12 (antibody, mouse IgG1, V domains shown)", "VH": "EVQLQQSGAGLVKPGASVKLSCTASGFNIKDTYMHWVRQRPEQGLEWIGRIDPATANTKYDPKFQGKATLTTDTSSNTAYLQLSSLTSEDTAVYYCVTYGYDVSWFAYWGLGALVTVSA", "VL": "DVLMTQTPLSLPVSLGDQASISCRSSQSIVHSNGITYLEWYLQKPGQSPKLLIYKVSNRFSGVPDRFSGSGSGTDFTLKISRVEAEDLGVYYCFQGSHVPLTFGAGTKLELK", "notes": "mouse IgG1/kappa; also called 36H12 (mouse)"}}, "key": {"[1]": {"target": "T1, membrane-bound 'CRD1 truncated' human HVEM on transiently transfected HEK293F cells (human, UniProt Q92956 76-283)", "T1 construct": "aa 1-19 are a mouse Ig signal peptide and are left out; Starts with CRD2; also called human HVEM deleted for CRD1; CRD1 truncated HVEM", "T1 sequence": "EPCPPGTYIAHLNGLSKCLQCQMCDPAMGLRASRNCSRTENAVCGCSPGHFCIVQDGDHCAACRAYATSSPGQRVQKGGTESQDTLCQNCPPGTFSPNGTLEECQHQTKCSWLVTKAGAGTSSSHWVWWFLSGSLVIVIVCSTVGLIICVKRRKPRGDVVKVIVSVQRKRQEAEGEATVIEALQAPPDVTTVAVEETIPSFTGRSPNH", "assay": "FACS, undiluted hybridoma supernatant, CRD1 truncated HVEM on HEK293F", "protocol": "Generation of human ‘full-length’ HVEM-transfected HEK293F cells (clone no. 128) is described in Example 1a. […] After 72 hours, surface human HVEM expression on transfected cells was analysed by FACS analysis. To this end, stable human full-length HVEM-transfected HEK293F cells and transient human ‘CRD1 truncated’ HVEM-transfected HEK293F cells were put at 10×10⁶ cells/mL in ice-chilled phosphate-buffered saline containing 0.1% BSA (Sigma)/0.05% NaN₃ (PBS/BSA/NaN₃) supplemented with 50 μg/mL human IgGs (blocking of possible Fcγ receptors; Sigma) for 10 minutes at 4° C. Then, 10 μL/tube (i.e., 0.1×10⁶ cells) of these cells were incubated with 100 μL undiluted hybridoma supernatant/tube for 30 minutes at 4° C. Phycoerythrin (PE)-conjugated mouse anti-human HVEM antibody (clone eBioHVEM-122; eBioscience) at 1:20 was run as a positive control antibody. After extensive washing in PBS/BSA/NaN₃, cells were subsequently incubated with 1:200 diluted PE-conjugated goat anti-mouse IgG Fcγ-specific antibodies (Jackson ImmunoResearch) for 30 minutes at 4° C. After extensive washing in PBS/BSA/NaN₃, cells were fixed in 2% formaldehyde in PBS/BSA/NaN₃ for 30 minutes at 4° C. Binding of antibodies was measured using a flow cytometer (model FACSCalibur; BD Biosciences)."}, "[2]": {"target": "T2, membrane-bound full-length human HVEM on stable HVEM-transfected HEK293F cells (clone no. 128) (human, UniProt Q92956 39-283)", "T2 construct": "The same cDNA was also expressed on Sf9 insect cells; also called TNFRSF14; CD270", "T2 sequence": "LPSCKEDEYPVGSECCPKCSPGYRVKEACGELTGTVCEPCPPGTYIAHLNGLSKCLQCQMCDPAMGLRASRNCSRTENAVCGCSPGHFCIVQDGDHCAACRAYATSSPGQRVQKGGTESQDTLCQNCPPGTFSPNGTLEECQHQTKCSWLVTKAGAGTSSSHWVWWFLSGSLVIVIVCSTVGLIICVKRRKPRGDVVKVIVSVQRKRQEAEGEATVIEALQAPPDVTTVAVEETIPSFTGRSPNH", "assay": "FACS, Ab 10 µg/mL then biotinylated BTLA on HVEM-HEK293F", "protocol": "Generation of human ‘full-length’ HVEM-transfected HEK293F cells (clone no. 128) is described in Example 1a. Binding of soluble human BTLA, of soluble human CD160, of soluble human LIGHT, and of soluble human TNFβ on surface human HVEM-transfected cells was analysed by FACS analysis. To this end, stable human full-length HVEM-transfected HEK293F cells were put at 10×10⁶ cells/mL in ice-chilled phosphate-buffered saline containing 0.1% BSA (Sigma)/0.05% NaN₃ (PBS/BSA/NaN₃) supplemented with 50 μg/mL human IgGs (blocking possible Fcγ receptors; Sigma) for 10 minutes at 4° C. Then, 10 μL/tube (i.e., 0.1×10⁶ cells) of these cells were incubated with or without 100 μL purified chimeric mouse/human anti-HVEM antibody at 10 μg/mL/tube or a human IgG4/κ (Sigma) negative isotype control at 10 μg/mL/tube for 30 minutes at 4° C. After this (i.e., without washing), cells were subsequently incubated with 1 μg/mL soluble biotinylated human BTLA (Sino Biological Inc), with 10 μg/mL soluble his-tagged human CD160 (Sino Biological Inc), with 1 μg/mL soluble his-tagged human LIGHT (Sino Biological Inc), or with 0.1 μg/mL soluble biotinylated human TNFβ (Sino Biological Inc) in PBS/BSA/NaN₃ for 30 minutes at 4° C. After extensive washing in PBS/BSA/NaN₃, cells were incubated with 1:200 diluted PE-conjugated streptavidin (detection BTLA and TNFβ; Jackson ImmunoResearch) or with biotinylated mouse anti-his antibody (detection CD160 and LIGHT; R&D Systems) at 10 μg/mL for 30 minutes at 4° C. After extensive washing in PBS/BSA/NaN₃, cells were incubated with 1:200 diluted PE-conjugated streptavidin (detection CD160 and LIGHT; Jackson ImmunoResearch) for 30 minutes at 4° C. After extensive washing in PBS/BSA/NaN₃, cells were fixed in 4% formaldehyde in PBS/BSA/NaN₃ for 30 minutes at 4° C. Binding of ligands BTLA, CD160, LIGHT and TNFβ on membrane human HVEM was measured using a flow cytometer (model FACSCalibur; BD Biosciences). For comparison, purified BTLA/HVEM blocking mouse anti-human HVEM antibody counterparts no. 36H12, 45H6, 48H6, 11H7, and 49G4 at 10 μg/mL/tube and a mouse IgG1 (BD Biosciences) negative isotype control at 10 μg/mL/tube were run in parallel."}}}
{"binder": "B1", "values": [{"measurement": "binding result", "setting": "[1]", "result": "no binding"}, {"measurement": "% blocking of ligand binding", "setting": "[2]", "result": "> 95", "unit": "%"}]}
